Measurements from PMC7491321.

System: FopA (Salmonella enterica serovar Typhimurium SL1344 (plasmid pCol1B9))
Assay: EMSA

Substance	Kd [nM]
Inc RNA	1000
Inc-repZ complex	1000
repZ 5'UTR fragment	1000
